Results reported in patent US20210395323A1 (UNIVERSIT T STUTTGART, published 2021).

Tests used:
[1] = target: T1, TNFR2 on human cells (Kym-1 cells; human CD3+ T cells) (human, UniProt P20333 23-461); experiment: cell-based or functional assay
T1 sequence (looked up): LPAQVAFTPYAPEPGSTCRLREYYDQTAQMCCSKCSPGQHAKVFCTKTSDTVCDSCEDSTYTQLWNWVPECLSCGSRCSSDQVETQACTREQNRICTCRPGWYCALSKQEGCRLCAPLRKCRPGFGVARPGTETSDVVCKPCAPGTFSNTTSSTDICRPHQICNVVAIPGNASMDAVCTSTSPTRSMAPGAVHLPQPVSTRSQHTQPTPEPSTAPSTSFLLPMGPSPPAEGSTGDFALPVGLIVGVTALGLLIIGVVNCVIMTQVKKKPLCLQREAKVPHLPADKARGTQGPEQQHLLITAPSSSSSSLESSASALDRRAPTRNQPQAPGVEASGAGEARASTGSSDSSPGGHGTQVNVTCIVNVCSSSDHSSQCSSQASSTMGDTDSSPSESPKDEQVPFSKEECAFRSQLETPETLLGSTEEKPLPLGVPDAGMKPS

[2] = target: T1, TNFR2 on human cells (Kym-1 cells; …); experiment: cell-based or functional assay; remark: listed apart in the source
[3] = target: T2, human TNFR2-Fc fusion protein (human, UniProt P20333 23-257); experiment: ELISA, huTNFR2-Fc coated at 1 µg/ml, bound protein detected with anti-TNF F6C5
T2 construct: also called huTNFR2-Fc; huTNFR2
T2 sequence (looked up): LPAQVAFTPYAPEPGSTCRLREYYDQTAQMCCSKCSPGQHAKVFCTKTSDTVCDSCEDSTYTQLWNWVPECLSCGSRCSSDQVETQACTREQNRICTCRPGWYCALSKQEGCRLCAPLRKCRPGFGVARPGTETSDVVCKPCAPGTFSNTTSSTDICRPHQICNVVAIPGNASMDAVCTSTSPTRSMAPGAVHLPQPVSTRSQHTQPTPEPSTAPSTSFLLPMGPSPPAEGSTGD
Description: ELISA plates (Greiner, Frickenhausen, Germany) were coated with huTNFR1-Fc, mTNFR1-Fc, huTNFR2-Fc or mTNFR2-Fc fusion proteins at 1 μg/ml in PBS and incubated at 4° C. overnight. Residual binding sites were blocked with 2% skim milk powder in PBS at RT for 2 hours. ScTNFR2 and the complexes were diluted in 2% skim milk powder in PBS and added at concentrations in the range of 10⁻³ to 10 nM and incubated for 1 hour at RT. Between each step, non-bound proteins were removed by washing 4 times with 0.005% Tween-20 in PBS.
Bound proteins were detected with mouse monoclonal antibodies to TNF (clone F6C5; 1 μg/ml; incubation for 1 hour at RT) and HRP-conjugated anti-mouse IgG antibodies (diluted 1:10000; incubation for 1 hour at RT), followed by incubation with tetramethylbenzidine (TMB) substrate solution. Reaction was stopped by addition of 1 M H₂SO₄ and the absorbance at 450 nm was determined with a Multiskan FC absorbance reader (Thermo Scientific, Karlsruhe, Germany) and data were analyzed using the software Microsoft Excel and GraphPad Prism 4 (GraphPad, La Jolla, Calif.) (FIG. 5). In Table 3, the calculated EC₅₀ values for the binding of TNF, scTNFR2 and the complexes to immobilized huTNFR2 and mTNFR2 based on the ELISA assay are summarized.

EC50 [3]: 0.508 nM
B1: EHD2-scTNFR2 (human) (ligand)
chain: DFTPPTVKILQSSCDGGGHFPPTIQLLCLVSGYTPGTINITWLEDGQVMDVDLSTASTTQEGELASTQSELTLSQKHWLSDRTYTCQVTYQGHTFEDSTKKCADSNGGGSGGGSGGGSGGGSGGGSGGSEFLASSRTPSDKPVAHVVANPQAEGQLQWLNRRANALLANGVELRDNQLVVPSEGLYLIYSQVLFKGQGCPSTHVLLTHTISRIAVSYQTKVNLLSAIKSPCQRETPEGAEAKPWYEPIYLGGVFQLEKGDRLSAEINRPDYLNFRESGQVYFGIIALGGGGSSSRTPSDKPVAHVVANPQAEGQLQWLNRRANALLANGVELRDNQLVVPSEGLYLIYSQVLFKGQGCPSTHVLLTHTISRIAVSYQTKVNLLSAIKSPCQRETPEGAEAKPWYEPIYLGGVFQLEKGDRLSAEINRPDYLNFRESGQVYFGIIALGGGGSSSRTPSDKPVAHVVANPQAEGQLQWLNRRANALLANGVELRDNQLVVPSEGLYLIYSQVLFKGQGCPSTHVLLTHTISRIAVSYQTKVNLLSAIKSPCQRETPEGAEAKPWYEPIYLGGVFQLEKGDRLSAEINRPDYLNFRESGQVYFGIIAL
notes: Hexavalent dimer of two subunits; also called hexavalent EHD2-scTNFR2
EC50 of Kym-1 cell viability (crystal violet assay after 16 h) [1]: 37000 nM
EC50 values (nM) of cell death induction using Kym-1 cells [2]: 0.0126 nM
